Assay results published in patent US20220204580A1 (AstraZeneca / MedImmune, published 2022).
Numbered stars: 1 amine (or outer) side, 2 acyl side, 3 side chain; on linkers, the order of the positions; unused ones are H or OH. Bridge positions count the residues as written; N and C are the ends. Square brackets hold non-standard residues; d marks the D form. Side chains are listed from the residue outwards. Ends that are not written are not given here. * marks the point of attachment. C18 diacid = O=C(O)CCCCCCCCCCCCCCCCC(=O)*; γGlu = O=C(O)[C@H](CCC(=O)[*:2])N[*:1]; Aib = CC(C)(N)C(=O)O

T1: human amylin receptor (calcitonin receptor co-expressed with receptor activity modifying protein, RAMP3) (human, UniProt P30988 25-474; O60896 24-148)
T1 sequence (looked up) 1: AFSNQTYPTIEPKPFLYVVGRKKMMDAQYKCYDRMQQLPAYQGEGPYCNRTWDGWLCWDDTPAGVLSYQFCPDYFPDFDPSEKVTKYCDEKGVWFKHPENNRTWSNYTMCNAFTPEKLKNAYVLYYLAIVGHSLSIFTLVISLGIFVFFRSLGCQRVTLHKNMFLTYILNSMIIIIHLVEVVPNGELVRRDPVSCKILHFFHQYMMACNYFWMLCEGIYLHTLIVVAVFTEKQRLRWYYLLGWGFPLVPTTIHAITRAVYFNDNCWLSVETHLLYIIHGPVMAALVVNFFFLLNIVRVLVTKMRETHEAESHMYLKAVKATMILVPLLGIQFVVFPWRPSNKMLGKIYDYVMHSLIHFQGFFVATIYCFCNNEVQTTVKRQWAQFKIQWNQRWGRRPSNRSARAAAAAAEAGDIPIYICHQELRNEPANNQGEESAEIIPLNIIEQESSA
T1 sequence (looked up) 2: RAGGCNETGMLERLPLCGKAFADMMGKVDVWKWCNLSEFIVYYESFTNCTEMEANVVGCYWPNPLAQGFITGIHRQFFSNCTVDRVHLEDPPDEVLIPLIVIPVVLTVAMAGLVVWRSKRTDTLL

T2: human calcitonin receptor (human, UniProt P30988 25-474)
T2 sequence (looked up): T1 sequence (looked up) 1

B1: Peptide 143 (SEQ ID NO: 143) (peptide)
peptide: K([γGlu-C18 diacid])GGKCNTATCATQRLANFL[Aib]HSSNNFGPILPPTNVGSNTY-NH2
modifications: disulfide 5-10; N-terminus assumed
SMILES: CC[C@H](C)[C@H](NC(=O)[C@@H]1CCCN1C(=O)CNC(=O)[C@H](Cc1ccccc1)NC(=O)[C@H](CC(N)=O)NC(=O)[C@H](CC(N)=O)NC(=O)[C@H](CO)NC(=O)[C@H](CO)NC(=O)[C@H](Cc1c[nH]cn1)NC(=O)C(C)(C)NC(=O)[C@H](CC(C)C)NC(=O)[C@H](Cc1ccccc1)NC(=O)[C@H](CC(N)=O)NC(=O)[C@H](C)NC(=O)[C@H](CC(C)C)NC(=O)[C@H](CCCNC(=N)N)NC(=O)[C@H](CCC(N)=O)NC(=O)[C@@H](NC(=O)[C@H](C)NC(=O)[C@@H]1CSSC[C@H](NC(=O)[C@H](CCCCN)NC(=O)CNC(=O)CNC(=O)[C@@H](N)CCCCNC(=O)CC[C@H](NC(=O)CCCCCCCCCCCCCCCCC(=O)O)C(=O)O)C(=O)N[C@@H](CC(N)=O)C(=O)N[C@@H]([C@@H](C)O)C(=O)N[C@@H](C)C(=O)N[C@@H]([C@@H](C)O)C(=O)N1)[C@@H](C)O)C(=O)N[C@@H](CC(C)C)C(=O)N1CCC[C@H]1C(=O)N1CCC[C@H]1C(=O)N[C@H](C(=O)N[C@@H](CC(N)=O)C(=O)N[C@H](C(=O)NCC(=O)N[C@@H](CO)C(=O)N[C@@H](CC(N)=O)C(=O)N[C@H](C(=O)N[C@@H](Cc1ccc(O)cc1)C(N)=O)[C@@H](C)O)C(C)C)[C@@H](C)O
B2: Peptide 146 (SEQ ID NO: 146) (peptide)
peptide: K([γGlu-C18 diacid])KCNTATCATQRLANFL[Aib]HSSNNFGPILPPTHVGSETY-NH2
modifications: disulfide 3-8; N-terminus assumed
SMILES: CC[C@H](C)[C@H](NC(=O)[C@@H]1CCCN1C(=O)CNC(=O)[C@H](Cc1ccccc1)NC(=O)[C@H](CC(N)=O)NC(=O)[C@H](CC(N)=O)NC(=O)[C@H](CO)NC(=O)[C@H](CO)NC(=O)[C@H](Cc1c[nH]cn1)NC(=O)C(C)(C)NC(=O)[C@H](CC(C)C)NC(=O)[C@H](Cc1ccccc1)NC(=O)[C@H](CC(N)=O)NC(=O)[C@H](C)NC(=O)[C@H](CC(C)C)NC(=O)[C@H](CCCNC(=N)N)NC(=O)[C@H](CCC(N)=O)NC(=O)[C@@H](NC(=O)[C@H](C)NC(=O)[C@@H]1CSSC[C@H](NC(=O)[C@H](CCCCN)NC(=O)[C@@H](N)CCCCNC(=O)CC[C@H](NC(=O)CCCCCCCCCCCCCCCCC(=O)O)C(=O)O)C(=O)N[C@@H](CC(N)=O)C(=O)N[C@@H]([C@@H](C)O)C(=O)N[C@@H](C)C(=O)N[C@@H]([C@@H](C)O)C(=O)N1)[C@@H](C)O)C(=O)N[C@@H](CC(C)C)C(=O)N1CCC[C@H]1C(=O)N1CCC[C@H]1C(=O)N[C@H](C(=O)N[C@@H](Cc1c[nH]cn1)C(=O)N[C@H](C(=O)NCC(=O)N[C@@H](CO)C(=O)N[C@@H](CCC(=O)O)C(=O)N[C@H](C(=O)N[C@@H](Cc1ccc(O)cc1)C(N)=O)[C@@H](C)O)C(C)C)[C@@H](C)O
B3: Peptide 147 (SEQ ID NO: 147) (peptide)
peptide: K([γGlu-C18 diacid])KCNTATCATQRLANFL[Aib]HSSNHFGPILPPTNVGSETY-NH2
modifications: disulfide 3-8; N-terminus assumed
SMILES: CC[C@H](C)[C@H](NC(=O)[C@@H]1CCCN1C(=O)CNC(=O)[C@H](Cc1ccccc1)NC(=O)[C@H](Cc1c[nH]cn1)NC(=O)[C@H](CC(N)=O)NC(=O)[C@H](CO)NC(=O)[C@H](CO)NC(=O)[C@H](Cc1c[nH]cn1)NC(=O)C(C)(C)NC(=O)[C@H](CC(C)C)NC(=O)[C@H](Cc1ccccc1)NC(=O)[C@H](CC(N)=O)NC(=O)[C@H](C)NC(=O)[C@H](CC(C)C)NC(=O)[C@H](CCCNC(=N)N)NC(=O)[C@H](CCC(N)=O)NC(=O)[C@@H](NC(=O)[C@H](C)NC(=O)[C@@H]1CSSC[C@H](NC(=O)[C@H](CCCCN)NC(=O)[C@@H](N)CCCCNC(=O)CC[C@H](NC(=O)CCCCCCCCCCCCCCCCC(=O)O)C(=O)O)C(=O)N[C@@H](CC(N)=O)C(=O)N[C@@H]([C@@H](C)O)C(=O)N[C@@H](C)C(=O)N[C@@H]([C@@H](C)O)C(=O)N1)[C@@H](C)O)C(=O)N[C@@H](CC(C)C)C(=O)N1CCC[C@H]1C(=O)N1CCC[C@H]1C(=O)N[C@H](C(=O)N[C@@H](CC(N)=O)C(=O)N[C@H](C(=O)NCC(=O)N[C@@H](CO)C(=O)N[C@@H](CCC(=O)O)C(=O)N[C@H](C(=O)N[C@@H](Cc1ccc(O)cc1)C(N)=O)[C@@H](C)O)C(C)C)[C@@H](C)O
B4: Peptide 142 (SEQ ID NO: 142) (peptide)
peptide: K([γGlu-C18 diacid])KCNTATCATQRLANFL[Aib]HSSNNFGPILPPTNVGSETY-NH2
modifications: disulfide 3-8; N-terminus assumed
SMILES: CC[C@H](C)[C@H](NC(=O)[C@@H]1CCCN1C(=O)CNC(=O)[C@H](Cc1ccccc1)NC(=O)[C@H](CC(N)=O)NC(=O)[C@H](CC(N)=O)NC(=O)[C@H](CO)NC(=O)[C@H](CO)NC(=O)[C@H](Cc1c[nH]cn1)NC(=O)C(C)(C)NC(=O)[C@H](CC(C)C)NC(=O)[C@H](Cc1ccccc1)NC(=O)[C@H](CC(N)=O)NC(=O)[C@H](C)NC(=O)[C@H](CC(C)C)NC(=O)[C@H](CCCNC(=N)N)NC(=O)[C@H](CCC(N)=O)NC(=O)[C@@H](NC(=O)[C@H](C)NC(=O)[C@@H]1CSSC[C@H](NC(=O)[C@H](CCCCN)NC(=O)[C@@H](N)CCCCNC(=O)CC[C@H](NC(=O)CCCCCCCCCCCCCCCCC(=O)O)C(=O)O)C(=O)N[C@@H](CC(N)=O)C(=O)N[C@@H]([C@@H](C)O)C(=O)N[C@@H](C)C(=O)N[C@@H]([C@@H](C)O)C(=O)N1)[C@@H](C)O)C(=O)N[C@@H](CC(C)C)C(=O)N1CCC[C@H]1C(=O)N1CCC[C@H]1C(=O)N[C@H](C(=O)N[C@@H](CC(N)=O)C(=O)N[C@H](C(=O)NCC(=O)N[C@@H](CO)C(=O)N[C@@H](CCC(=O)O)C(=O)N[C@H](C(=O)N[C@@H](Cc1ccc(O)cc1)C(N)=O)[C@@H](C)O)C(C)C)[C@@H](C)O
B5: Peptide 145 (SEQ ID NO: 145) (peptide)
peptide: K([γGlu-C18 diacid])KCNTATCATQRLANFL[Aib]HSSNNFGPILPPTNVGHNTY-NH2
modifications: disulfide 3-8; N-terminus assumed
SMILES: CC[C@H](C)[C@H](NC(=O)[C@@H]1CCCN1C(=O)CNC(=O)[C@H](Cc1ccccc1)NC(=O)[C@H](CC(N)=O)NC(=O)[C@H](CC(N)=O)NC(=O)[C@H](CO)NC(=O)[C@H](CO)NC(=O)[C@H](Cc1c[nH]cn1)NC(=O)C(C)(C)NC(=O)[C@H](CC(C)C)NC(=O)[C@H](Cc1ccccc1)NC(=O)[C@H](CC(N)=O)NC(=O)[C@H](C)NC(=O)[C@H](CC(C)C)NC(=O)[C@H](CCCNC(=N)N)NC(=O)[C@H](CCC(N)=O)NC(=O)[C@@H](NC(=O)[C@H](C)NC(=O)[C@@H]1CSSC[C@H](NC(=O)[C@H](CCCCN)NC(=O)[C@@H](N)CCCCNC(=O)CC[C@H](NC(=O)CCCCCCCCCCCCCCCCC(=O)O)C(=O)O)C(=O)N[C@@H](CC(N)=O)C(=O)N[C@@H]([C@@H](C)O)C(=O)N[C@@H](C)C(=O)N[C@@H]([C@@H](C)O)C(=O)N1)[C@@H](C)O)C(=O)N[C@@H](CC(C)C)C(=O)N1CCC[C@H]1C(=O)N1CCC[C@H]1C(=O)N[C@H](C(=O)N[C@@H](CC(N)=O)C(=O)N[C@H](C(=O)NCC(=O)N[C@@H](Cc1c[nH]cn1)C(=O)N[C@@H](CC(N)=O)C(=O)N[C@H](C(=O)N[C@@H](Cc1ccc(O)cc1)C(N)=O)[C@@H](C)O)C(C)C)[C@@H](C)O
B6: Peptide 144 (SEQ ID NO: 144) (peptide)
peptide: K([γGlu-C18 diacid])CNTATCATQRLAHFL[Aib]HSSNNFGPILPPTNVGSNTY-NH2
modifications: disulfide 2-7; N-terminus assumed
SMILES: CC[C@H](C)[C@H](NC(=O)[C@@H]1CCCN1C(=O)CNC(=O)[C@H](Cc1ccccc1)NC(=O)[C@H](CC(N)=O)NC(=O)[C@H](CC(N)=O)NC(=O)[C@H](CO)NC(=O)[C@H](CO)NC(=O)[C@H](Cc1c[nH]cn1)NC(=O)C(C)(C)NC(=O)[C@H](CC(C)C)NC(=O)[C@H](Cc1ccccc1)NC(=O)[C@H](Cc1c[nH]cn1)NC(=O)[C@H](C)NC(=O)[C@H](CC(C)C)NC(=O)[C@H](CCCNC(=N)N)NC(=O)[C@H](CCC(N)=O)NC(=O)[C@@H](NC(=O)[C@H](C)NC(=O)[C@@H]1CSSC[C@H](NC(=O)[C@@H](N)CCCCNC(=O)CC[C@H](NC(=O)CCCCCCCCCCCCCCCCC(=O)O)C(=O)O)C(=O)N[C@@H](CC(N)=O)C(=O)N[C@@H]([C@@H](C)O)C(=O)N[C@@H](C)C(=O)N[C@@H]([C@@H](C)O)C(=O)N1)[C@@H](C)O)C(=O)N[C@@H](CC(C)C)C(=O)N1CCC[C@H]1C(=O)N1CCC[C@H]1C(=O)N[C@H](C(=O)N[C@@H](CC(N)=O)C(=O)N[C@H](C(=O)NCC(=O)N[C@@H](CO)C(=O)N[C@@H](CC(N)=O)C(=O)N[C@H](C(=O)N[C@@H](Cc1ccc(O)cc1)C(N)=O)[C@@H](C)O)C(C)C)[C@@H](C)O

target: T1, human amylin receptor (calcitonin …); test: cell-based or functional assay

With B1 as the binder, how does the “EC50 (cAMP production)” value read?
The value was 0.592 nM.

And the “Ratio (EC50 hCTR / EC50 hAMYR3)” value?
Its value is 11.7.

With B2 as the binder, how does the “EC50 (cAMP production)” value read?
Its value is 2.53 nM.

And the “Ratio (EC50 hCTR / EC50 hAMYR3)” value?
Its value is 1.9.

For B3, which “EC50 (cAMP production)” value is on record?
The value was 0.802 nM.

And the “Ratio (EC50 hCTR / EC50 hAMYR3)” value?
The value was 1.9.

Which “EC50 (cAMP production)” value does the source give for B4 here?
Its value is 0.73 nM.

And the “Ratio (EC50 hCTR / EC50 hAMYR3)” value?
The value was 3.1.

Which results are given for B5?
EC50 (cAMP production): 0.417 nM; Ratio (EC50 hCTR / EC50 hAMYR3): 4.5

What does the source list for B6?
EC50 (cAMP production): 0.138 nM; Ratio (EC50 hCTR / EC50 hAMYR3): 5.3

target: T2, human calcitonin receptor; test: cell-based or functional assay

For B1, which “EC50 (cAMP production)” value is on record?
The value was 6.94 nM.

Which “EC50 (cAMP production)” value does the source give for B2 here?
Its value is 4.87 nM.

How did the “EC50 (cAMP production)” value turn out when B3 was run?
The value was 1.51 nM.

For B4, which “EC50 (cAMP production)” value is on record?
Its value is 2.27 nM.

B5 was tested. Which “EC50 (cAMP production)” value did it give?
Its value is 1.88 nM.

Which “EC50 (cAMP production)” value does the source give for B6 here?
The value was 0.725 nM.
